Measured values published in patent US7488598B2, “Mutant purine nucleoside phosphorylase proteins and cellular delivery thereof” (priority 2001, dated 2009).
Values joined by “and” are separate entries in the source; they are usually repeats but may differ in a detail not shown here. Equal entries are not always repeated.

Experiments:
[1] = molecular target: E. coli PNP mutant M65A (Escherichia coli, UniProt P0ABP8, M65A); conditions: Table II; relative to wild-type PNP of the same line
[2] = molecular target: E. coli PNP mutant M65V (Escherichia coli, UniProt P0ABP8, M65V); conditions: for M65V percent of wild-type activity: Table II, relative to wild-type PNP of the same line; for M65V, crude extract, rate of cleavage / M65V, pure enzyme, rate of cleavage: Table III, 100 μM substrate, HPLC, average of separate experiments
[3] = molecular target: wild-type E. coli PNP (Escherichia coli, UniProt P0ABP8); conditions: Table III; 100 μM substrate; HPLC; average of separate experiments
[4] = test system: human cells in culture
[5] = in vivo, 3 days
[6] = test system: tumor expressing wild-type enzyme; experiment: Anti-tumor response of tumors expressing wild-type enzyme; format: in vivo
[7] = test system: Clostridium perfringens; format: biochemical
[8] = test system: Nc1ncnc2c1ncn2[C@@H]1O[C@@H](CO)[C@@H](O)[C@H]1O; experiment: purified protein, by the assay type; conditions: other: wild-type enzyme
[9] = test system: Cc1ncnc2c1ncn2[C@H]1C[C@H](O)[C@@H](CO)O1; experiment: purified protein, by the assay type; conditions: other: wild-type enzyme
[10] = test system: Cc1ncnc2c1ncn2[C@@H]1O[C@H]([C@H](C)O)[C@@H](O)[C@H]1O; experiment: purified protein, by the assay type; conditions: other: wild-type enzyme
[11] = E. coli PNP enzyme activity with substrate allo-met; conditions: Table IV, 0 denotes no measurable activity
[12] = E. coli PNP enzyme activity with substrate F-araA; conditions: percent of wild-type activity
[13] = E. coli PNP enzyme activity with substrate 5′-S-phenyl; conditions: Table IV, 0 denotes no measurable activity
[14] = E. coli PNP enzyme activity with substrate MeP-dR; conditions: for Activity, MeP-dR: Table IV, 0 denotes no measurable activity; for Activity, MeP-dR / Percent of Control Activity, MeP-dR: substrate MeP-dR; for Percent of Control Activity, MeP-dR: percent of wild-type activity
[15] = E. coli PNP enzyme activity with substrate 5′-NH2; conditions: Table IV, 0 denotes no measurable activity
[16] = E. coli PNP enzyme activity with substrate allo-acet; conditions: Table IV, 0 denotes no measurable activity
[17] = E. coli PNP enzyme activity with substrate 5′CONH2; conditions: Table IV, 0 denotes no measurable activity
[18] = E. coli PNP enzyme activity with substrate talo-acet; conditions: Table IV, 0 denotes no measurable activity
[19] = E. coli PNP enzyme activity with substrate α-L-lyxo; conditions: Table IV, 0 denotes no measurable activity
[20] = E. coli PNP enzyme activity with substrate talo-met; conditions: Table IV, 0 denotes no measurable activity

Sequence of wild-type E. coli PNP (P0ABP8 whole entry): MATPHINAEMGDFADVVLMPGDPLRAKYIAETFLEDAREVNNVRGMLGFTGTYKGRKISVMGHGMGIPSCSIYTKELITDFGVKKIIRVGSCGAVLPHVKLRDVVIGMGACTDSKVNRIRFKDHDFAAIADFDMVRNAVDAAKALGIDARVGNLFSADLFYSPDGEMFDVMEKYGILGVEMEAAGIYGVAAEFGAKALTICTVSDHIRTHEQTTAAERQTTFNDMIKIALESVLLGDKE
Sequence of E. coli PNP mutant M65A (P0ABP8 whole entry M65A): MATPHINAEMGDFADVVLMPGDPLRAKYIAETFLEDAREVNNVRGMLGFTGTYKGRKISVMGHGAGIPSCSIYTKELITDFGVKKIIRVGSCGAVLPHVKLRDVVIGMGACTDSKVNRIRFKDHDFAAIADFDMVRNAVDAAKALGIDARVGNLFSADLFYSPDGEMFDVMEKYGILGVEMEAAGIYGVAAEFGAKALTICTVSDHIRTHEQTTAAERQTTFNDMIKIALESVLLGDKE

For `NC[C@H]1O[C@@H](n2cnc3c(N)ncnc32)[C@H](O)[C@@H]1O` [5′-amino-5′-deoxy-Ado, 5′-amino-5′-deoxyadenosine], the “M65A percent of wild-type activity” value [1] was “(5%)”, the “M65V percent of wild-type activity” value [2] was “(94%)” and the “M65V, crude extract, rate of cleavage” value [2] was 930 nmol/mg/h. The “Wild type, pure enzyme, rate of cleavage” value [3] was 539 nmol/mg/h.

For `Cc1ncnc2c1ncn2[C@@H]1O[C@H]([C@H](C)O)[C@@H](O)[C@H]1O` [5′-methyl(talo)MeP-R, 9-(6-deoxy-α-L-talofuranosyl)-6-methylpurine], the “less toxic to human cells in culture than F-araA” value [4] was “over 40 fold”, the “human dosage determined from mouse tolerated dose” value [5] was 600 mg/m^2 and the “activity of mutant M65V PNP compared with wild-type PNP (in words)” value ([2]; Example 16 analysis) was “more activity”. For the same molecule, the “Activity of M65V mutant greater than wild-type PNP” value ([2]; M65V versus wild-type PNP) was 38 fold, the “M65V, crude extract, rate of cleavage” value [2] was 75,000 nmole/mg/hr and the “M65V, pure enzyme, rate of cleavage” value [2] was 76,000 nmole/mg/hr. For the same molecule, the “M65V cleavage of substrate relative to wild-type enzyme cleavage of F-araA” value ([2]; compared with wild-type enzyme cleaving F-araA) was 80 times and the “Wild type, pure enzyme, rate of cleavage” value [3] was 915 nmol/mg/h.

In the case of `Nc1nc(F)nc2c1ncn2[C@@H]1O[C@H](CO)[C@@H](O)[C@@H]1O` [F-araA, 9-(β-D-arabinofuranosyl)-2-fluoroadenine], the tumor response [6] is reported as “complete responses”, the “M65V, crude extract, rate of cleavage” value [2] is reported as 904 nmol/mg/h and the “Wild type, pure enzyme, rate of cleavage” value [3] is reported as 1,250 nmole/mg/hr.

With `Cc1ncnc2c1ncn2[C@H]1C[C@H](O)[C@@H](CO)O1` [MeP-dR, 9-(2-deoxy-β-D-ribofuranosyl)-6-methylpurine] the “enzyme activity converting MeP-dR to MeP” value [7] was “capable of converting MeP-dR to MeP”, the “M65V percent of wild-type activity” value [2] was “(57%)” and the “M65V, crude extract, rate of cleavage” value [2] was 535,000 nmole/mg/hr. The “M65V, pure enzyme, rate of cleavage” value [2] was 593,000 nmole/mg/hr and the “Wild type, pure enzyme, rate of cleavage” value [3] was 528,000 nmole/mg/hr.

With “wild-type E. coli PNP (Escherichia coli K-12)” the Km [8] was 1,370 μM and 1,340 μM, the kcat [8] was 0.133 s⁻¹ and 0.383 s⁻¹ and the Km [9] was 140 µM and 111 µM. The Vmax [9] was 30.2 µmol/min/mg and 18.3 µmol/min/mg, the kcat [9] was 12.1 s⁻¹ and 7.33 s⁻¹ and the Km [10] was 2,980 μM and 3,000 μM.

B1: M65V (protein, listed as Escherichia coli)
chain: MATPHINAEMGDFADVVLMPGDPLRAKYIAETFLEDAREVNNVRGMLGFTGTYKGRKISVMGHGVGIPSCSIYTKELITDFGVKKIIRVGSCGAVLPHVKLRDVVIGMGACTDSKVNRIRFKDHDFAAIADFDMVRNAVDAAKALGIDARVGNLFSADLFYSPDGEMFDVMEKYGILGVEMEAAGIYGVAAEFGAKALTICTVSDHIRTHEQTTAAERQTTFNDMIKIALESVLLGDKE
In the case of B1, the “Activity, allo-met” value [11] is reported as 320 nmol/mg/h and 163 nmol/mg/h, the “Percent of Control Activity, F-araA” value [12] is reported as 37% and the “Activity, 5′-S-phenyl” value [13] is reported as 0 nmol/mg/h. For the same molecule, the “Activity, MeP-dR” value [14] was 524,000 nmoles/mg/hour and 281,000 nmoles/mg/hour, the “Percent of Control Activity, MeP-dR” value [14] was 42% and the “activity toward substrates MeP-dR and F-araA (in words)” value ([14]; substrates MeP-dR and F-araA, Table I) was “retained some appreciable level of activity”. The “Activity, 5′-NH2” value [15] was 760 nmol/mg/h and 1150 nmol/mg/h and the “Activity, allo-acet” value [16] was 0 nmol/mg/h.

B2: Wild-type: wild-type E. coli purine nucleoside phosphorylase (PNP) (protein, UniProt P0ABP8 2-239, looked up)
Purine nucleoside …: ATPHINAEMGDFADVVLMPGDPLRAKYIAETFLEDAREVNNVRGMLGFTGTYKGRKISVMGHGMGIPSCSIYTKELITDFGVKKIIRVGSCGAVLPHVKLRDVVIGMGACTDSKVNRIRFKDHDFAAIADFDMVRNAVDAAKALGIDARVGNLFSADLFYSPDGEMFDVMEKYGILGVEMEAAGIYGVAAEFGAKALTICTVSDHIRTHEQTTAAERQTTFNDMIKIALESVLLGDKE
For B2, the “Percent of Control Activity, F-araA” value [12] was 100%, the “Activity, 5′CONH2” value [17] was 18 nmol/mg/h and the “Activity, 5′-S-phenyl” value [13] was 0 nmol/mg/h. The “Activity, MeP-dR” value [14] was 740,000 nmoles/mg/hour, the “Percent of Control Activity, MeP-dR” value [14] was 100% and the “Activity, talo-acet” value [18] was 0 nmol/mg/h. The “Activity, α-L-lyxo” value [19] was 4500 nmol/mg/h, the “Activity, 5′-NH2” value ([15]; listed as WT) was 960 nmol/mg/h and 1270 nmol/mg/h and the “Activity, talo-met” value [20] was 962 nmol/mg/h. The “Activity, allo-acet” value [16] was 0 nmol/mg/h.
